Data set [1] deals with T1, CtTrl1-LIG WT (Chaetomium thermophilum, UniProt G0S6G2 1-414).
T1 sequence: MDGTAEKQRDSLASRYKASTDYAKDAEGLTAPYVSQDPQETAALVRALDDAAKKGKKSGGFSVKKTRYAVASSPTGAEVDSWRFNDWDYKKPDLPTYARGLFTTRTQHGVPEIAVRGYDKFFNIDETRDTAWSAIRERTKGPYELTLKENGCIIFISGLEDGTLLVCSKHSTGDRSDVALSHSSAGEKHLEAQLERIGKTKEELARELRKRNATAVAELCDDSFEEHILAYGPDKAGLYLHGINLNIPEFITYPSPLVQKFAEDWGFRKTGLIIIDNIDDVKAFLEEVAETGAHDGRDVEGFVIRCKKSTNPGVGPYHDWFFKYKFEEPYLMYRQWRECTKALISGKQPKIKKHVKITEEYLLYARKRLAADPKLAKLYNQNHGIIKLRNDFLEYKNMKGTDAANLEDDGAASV
The data set is described as follows: EMSA.

The target in data set [2] is T1, CtTrl1-LIG WT. Nature of the data set: EMSA. This is another data set of the same source. On the technique in general: A gel shift assay detects complexes by their altered migration in electrophoresis.
The target of the next data set is T2, CtTrl1-LIG S171A (Chaetomium thermophilum, UniProt G0S6G2 1-414, S171A).
T2 sequence: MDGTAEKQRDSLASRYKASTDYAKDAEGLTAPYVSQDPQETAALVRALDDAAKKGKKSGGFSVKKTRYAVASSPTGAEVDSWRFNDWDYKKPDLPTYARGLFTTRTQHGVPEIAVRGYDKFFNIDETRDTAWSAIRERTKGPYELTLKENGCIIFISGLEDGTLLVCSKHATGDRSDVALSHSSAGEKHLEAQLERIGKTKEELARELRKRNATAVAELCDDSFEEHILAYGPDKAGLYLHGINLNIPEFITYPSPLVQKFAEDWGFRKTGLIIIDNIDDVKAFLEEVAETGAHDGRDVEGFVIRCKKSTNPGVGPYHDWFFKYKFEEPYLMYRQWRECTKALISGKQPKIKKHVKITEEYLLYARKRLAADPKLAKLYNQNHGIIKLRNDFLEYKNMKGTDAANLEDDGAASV
Nature of the data set: EMSA.

The target in another data set is T3, CtTrl1-LIG H170A (Chaetomium thermophilum, UniProt G0S6G2 1-414, H170A).
T3 sequence: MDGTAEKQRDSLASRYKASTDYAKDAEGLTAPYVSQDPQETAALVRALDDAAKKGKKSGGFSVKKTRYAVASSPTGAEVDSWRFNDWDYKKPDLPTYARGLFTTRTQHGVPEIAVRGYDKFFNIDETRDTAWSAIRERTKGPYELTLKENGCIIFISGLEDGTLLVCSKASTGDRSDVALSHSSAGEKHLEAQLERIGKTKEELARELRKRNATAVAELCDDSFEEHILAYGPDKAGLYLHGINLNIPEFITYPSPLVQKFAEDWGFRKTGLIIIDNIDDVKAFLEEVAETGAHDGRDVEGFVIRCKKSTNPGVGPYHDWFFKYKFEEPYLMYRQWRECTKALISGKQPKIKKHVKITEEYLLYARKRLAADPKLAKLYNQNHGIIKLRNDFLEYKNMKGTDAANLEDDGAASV
The data set is described as follows: EMSA.

The target of a further data set is T4, CtTrl1-LIG K148N (Chaetomium thermophilum, UniProt G0S6G2 1-414, K148N).
T4 sequence: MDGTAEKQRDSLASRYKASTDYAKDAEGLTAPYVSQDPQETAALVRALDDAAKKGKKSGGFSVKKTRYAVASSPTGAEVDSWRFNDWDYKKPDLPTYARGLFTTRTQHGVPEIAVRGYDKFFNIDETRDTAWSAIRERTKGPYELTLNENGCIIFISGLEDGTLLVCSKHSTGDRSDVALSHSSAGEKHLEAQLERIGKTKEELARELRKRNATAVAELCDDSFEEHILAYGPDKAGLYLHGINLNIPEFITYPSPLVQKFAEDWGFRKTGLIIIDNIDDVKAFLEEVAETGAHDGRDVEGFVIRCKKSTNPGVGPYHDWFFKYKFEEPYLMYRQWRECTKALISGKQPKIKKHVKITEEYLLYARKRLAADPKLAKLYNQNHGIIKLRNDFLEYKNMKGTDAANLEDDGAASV
Nature of the data set: EMSA.

Data set [3] deals with T1, CtTrl1-LIG WT. The data set is described as follows: X-ray crystallography.

B1: ASL-4U-5C (structured_RNA)
RNA: CUCUGGAUUUUGCCAGACUGAAG
modifications: 5'-phosphate and terminal phosphate presumed as in ASL-4U
As to B1, the binding result with CtTrl1-LIG WT [1] was “binds”.

B2: ASL-4U (structured_RNA)
RNA: AUCUGGAUUUUGCCAGACUGAAG
modifications: 5'-phosphate; terminal phosphate at 3' end nucleotide (2'-P/3'-OH)
Turning to B2, the binding result with CtTrl1-LIG WT [2], with CtTrl1-LIG S171A, with CtTrl1-LIG H170A and with CtTrl1-LIG K148N was “binds” in each case.

B3: 3'exon-7nt (dsRNA)
RNA 1: AUCUGGA
RNA 2: AUCUGGA
modifications: 5'-phosphate; one strand end 5'-adenylylated (AppRNA) in the crystal
With B3, the binding result with CtTrl1-LIG WT [3] is “binds”.

The values are drawn from PMC12440814.
